B1: FLAG-Sestrin3 (other)
chain: MNRGGGSPSAAANYLLCTNCRKVLRKDKRIRVSQPLTRGPSAFIPEKEVVQANTVDERTNFLVEEYSTSGRLDNITQVMSLHTQYLESFLRSQFYMLRMDGPLPLPYRHYIAIMAAARHQCSYLINMHVDEFLKTGGIAEWLNGLEYVPQRLKNLNEINKLLAHRPWLITKEHIQKLVKTGENNWSLPELVHAVVLLAHYHALASFVFGSGINPERDPEISNGFRLISVNNFCVCDLANDNNIENASLSGSNFGIVDSLSELEALMERMKRLQEEREDEEASQEEMSTRFEKEKKESLFVVSGDTFHSFPHSDFEDDMIITSDVSRYIEDPGFGYEDFARRGEEHLPTFRAQDYTWENHGFSLVNRLYSDIGHLLDEKFRMVYNLTYNTMATHEDVDTTMLRRALFNYVHCMFGIRYDDYDYGEVNQLLERSLKVYIKTVTCYPERTTKRMYDSYWRQFKHSEKVHVNLLLMEARMQAELLYALRAITRHLT
notes: also called recombinant, FLAG-tagged Sestrin3; not shown: FLAG tag
B2: FLAG-Sestrin1 (other)
chain: MAEGENEVRWDGLCSRDSTTRETALENIRQTILRKTEYLRSVKETPHRPSDGLSNTESSDGLNKLLAHLLMLSKRCPFKDVREKSEFILKSIQELGIRIPRPLGQGPSRFIPEKEILQVGSEDAQMHALFADSFAALGRLDNITLVMVFHPQYLESFLKTQHYLLQMDGPLPLHYRHYIGIMAAARHQCSYLVNLHVNDFLHVGGDPKWLNGLENAPQKLQNLGELNKVLAHRPWLITKEHIEGLLKAEEHSWSLAELVHAVVLLTHYHSLASFTFGCGISPEIHCDGGHTFRPPSVSNYCICDITNGNHSVDEMPVNSAENVSVSDSFFEVEALMEKMRQLQECRDEEEASQEEMASRFEIEKRESMFVFSSDDEEVTPARAVSRHFEDTSYGYKDFSRHGMHVPTFRVQDYCWEDHGYSLVNRLYPDVGQLIDEKFHIAYNLTYNTMAMHKDVDTSMLRRAIWNYIHCMFGIRYDDYDYGEINQLLDRSFKVYIKTVVCTPEKVTKRMYDSFWRQFKHSEKVHVNLLLIEARMQAELLYALRAITRYMT
notes: also called recombinant, FLAG-tagged Sestrin1; not shown: FLAG tag
B3: FLAG-Sestrin2 (other)
chain: MIVADSECRAELKDYLRFAPGGVGDSGPGEEQRESRARRGPRGPSAFIPVEEVLREGAESLEQHLGLEALMSSGRVDNLAVVMGLHPDYFTSFWRLHYLLLHTDGPLASSWRHYIAIMAAARHQCSYLVGSHMAEFLQTGGDPEWLLGLHRAPEKLRKLSEINKLLAHRPWLITKEHIQALLKTGEHTWSLAELIQALVLLTHCHSLSSFVFGCGILPEGDADGSPAPQAPTPPSEQSSPPSRDPLNNSGGFESARDVEALMERMQQLQESLLRDEGTSQEEMESRFELEKSESLLVTPSADILEPSPHPDMLCFVEDPTFGYEDFTRRGAQAPPTFRAQDYTWEDHGYSLIQRLYPEGGQLLDEKFQAAYSLTYNTIAMHSGVDTSVLRRAIWNYIHCVFGIRYDDYDYGEVNQLLERNLKVYIKTVACYPEKTTRRMYNLFWRHFRHSEKVHVNLLLLEARMQAALLYALRAITRYMT
notes: Transiently or stably expressed in HEK-293T cells; also called FLAG-tagged wild-type Sestrin2; wild-type Sestrin2; not shown: FLAG tag
B4: endogenous Sestrin2 (other)
chain: B3 chain
notes: Endogenous protein of human HEK-293T cells
B5: metap2 control protein (enzyme, UniProt P50579 1-478, looked up, not shown: small tags and cut ends)
chain: MAGVEEVAASGSHLNGDLDPDDREEGAASTAEEAAKKKRRKKKKSKGPSAAGEQEPDKESGASVDEVARQLERSALEDKERDEDDEDGDGDGDGATGKKKKKKKKKRGPKVQTDPPSVPICDLYPNGVFPKGQECEYPPTQDGRTAAWRTTSEEKKALDQASEEIWNDFREAAEAHRQVRKYVMSWIKPGMTMIEICEKLEDCSRKLIKENGLNAGLAFPTGCSLNNCAAHYTPNAGDTTVLQYDDICKIDFGTHISGRIIDCAFTVTFNPKYDTLLKAVKDATNTGIKCAGIDVRLCDVGEAIQEVMESYEVEIDGKTYQVKPIRNLNGHSIGQYRIHAGKTVPIVKGGEATRMEEGEVYAIETFGSTGKGVVHDDMECSHYMKNFDVGHVPIRLPRTKHLLNVINENFGTLAFCRRWLDRLGESKYLMALKNLCDLGIVDPYPPLCDIKGSYTAQFEHTILLRPTCKEVVSRGDDY
notes: Control protein; also called FLAG-Metap2; FLAG-metap2

Experiments:
[1] = molecular target: T1, GATOR1, recombinant (HA-Depdc5, HA-Npr13, HA-Npr12) (UniProt O75140 1-1603; Q8WTW4 1-380; Q12980 1-569, limits assumed); assay: anti-FLAG co-immunoprecipitation, transient co-expression in HEK-293T, immunoblot (FIG. 1B)
T1 construct: also called GATOR1 multi-protein complex; not shown: HA tag
T1 sequence (O75140 whole entry, chain 1 of 3): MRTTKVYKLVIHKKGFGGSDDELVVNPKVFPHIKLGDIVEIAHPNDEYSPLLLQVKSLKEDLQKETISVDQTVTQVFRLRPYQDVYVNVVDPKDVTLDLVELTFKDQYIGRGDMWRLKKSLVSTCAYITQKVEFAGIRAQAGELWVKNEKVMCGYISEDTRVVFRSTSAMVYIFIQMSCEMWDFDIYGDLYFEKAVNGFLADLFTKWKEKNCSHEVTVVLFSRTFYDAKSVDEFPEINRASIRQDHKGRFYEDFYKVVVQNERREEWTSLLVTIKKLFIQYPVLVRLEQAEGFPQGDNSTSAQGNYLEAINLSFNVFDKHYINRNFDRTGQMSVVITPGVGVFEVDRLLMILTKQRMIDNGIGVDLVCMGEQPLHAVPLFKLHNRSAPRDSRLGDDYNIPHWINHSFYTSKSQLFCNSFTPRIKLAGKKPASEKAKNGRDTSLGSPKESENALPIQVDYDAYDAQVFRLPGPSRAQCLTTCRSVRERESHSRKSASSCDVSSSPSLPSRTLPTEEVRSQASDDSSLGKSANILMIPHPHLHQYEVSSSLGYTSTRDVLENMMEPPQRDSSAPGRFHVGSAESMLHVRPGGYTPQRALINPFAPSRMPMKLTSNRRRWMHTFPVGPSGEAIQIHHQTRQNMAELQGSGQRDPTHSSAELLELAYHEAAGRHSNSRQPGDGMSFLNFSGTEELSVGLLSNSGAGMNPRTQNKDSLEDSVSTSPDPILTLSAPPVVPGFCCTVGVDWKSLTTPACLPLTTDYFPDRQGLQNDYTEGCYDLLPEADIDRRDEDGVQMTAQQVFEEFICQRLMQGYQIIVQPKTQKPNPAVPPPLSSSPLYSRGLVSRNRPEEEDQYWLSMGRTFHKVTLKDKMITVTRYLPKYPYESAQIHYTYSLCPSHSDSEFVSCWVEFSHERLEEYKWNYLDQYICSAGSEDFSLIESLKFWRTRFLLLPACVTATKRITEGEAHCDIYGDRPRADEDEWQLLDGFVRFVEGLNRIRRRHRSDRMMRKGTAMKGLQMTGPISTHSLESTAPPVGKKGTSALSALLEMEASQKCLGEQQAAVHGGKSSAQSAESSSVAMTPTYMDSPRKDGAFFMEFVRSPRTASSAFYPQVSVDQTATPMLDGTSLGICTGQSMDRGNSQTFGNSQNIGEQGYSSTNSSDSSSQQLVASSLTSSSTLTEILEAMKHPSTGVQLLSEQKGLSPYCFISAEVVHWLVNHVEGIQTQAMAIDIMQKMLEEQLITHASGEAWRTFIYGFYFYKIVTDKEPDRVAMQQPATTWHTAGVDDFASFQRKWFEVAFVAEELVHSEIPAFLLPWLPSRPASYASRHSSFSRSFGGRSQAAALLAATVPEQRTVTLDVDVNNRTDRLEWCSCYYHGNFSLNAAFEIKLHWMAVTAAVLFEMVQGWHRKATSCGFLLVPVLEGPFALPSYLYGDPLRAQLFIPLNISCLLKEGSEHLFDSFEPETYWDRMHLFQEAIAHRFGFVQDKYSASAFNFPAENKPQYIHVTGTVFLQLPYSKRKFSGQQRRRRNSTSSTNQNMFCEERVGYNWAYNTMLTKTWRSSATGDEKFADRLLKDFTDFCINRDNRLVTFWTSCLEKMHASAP
T1 sequence (Q8WTW4 whole entry, chain 2 of 3): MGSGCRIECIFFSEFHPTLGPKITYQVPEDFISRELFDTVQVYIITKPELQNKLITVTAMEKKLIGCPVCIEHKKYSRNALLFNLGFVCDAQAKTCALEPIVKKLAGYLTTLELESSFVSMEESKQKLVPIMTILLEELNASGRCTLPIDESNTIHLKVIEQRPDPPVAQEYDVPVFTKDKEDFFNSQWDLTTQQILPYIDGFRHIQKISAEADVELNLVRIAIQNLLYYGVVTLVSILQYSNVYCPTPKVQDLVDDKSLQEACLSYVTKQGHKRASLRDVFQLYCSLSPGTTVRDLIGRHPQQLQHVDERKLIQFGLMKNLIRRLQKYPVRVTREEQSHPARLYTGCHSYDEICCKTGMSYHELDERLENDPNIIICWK
T1 sequence (Q12980 whole entry, chain 3 of 3): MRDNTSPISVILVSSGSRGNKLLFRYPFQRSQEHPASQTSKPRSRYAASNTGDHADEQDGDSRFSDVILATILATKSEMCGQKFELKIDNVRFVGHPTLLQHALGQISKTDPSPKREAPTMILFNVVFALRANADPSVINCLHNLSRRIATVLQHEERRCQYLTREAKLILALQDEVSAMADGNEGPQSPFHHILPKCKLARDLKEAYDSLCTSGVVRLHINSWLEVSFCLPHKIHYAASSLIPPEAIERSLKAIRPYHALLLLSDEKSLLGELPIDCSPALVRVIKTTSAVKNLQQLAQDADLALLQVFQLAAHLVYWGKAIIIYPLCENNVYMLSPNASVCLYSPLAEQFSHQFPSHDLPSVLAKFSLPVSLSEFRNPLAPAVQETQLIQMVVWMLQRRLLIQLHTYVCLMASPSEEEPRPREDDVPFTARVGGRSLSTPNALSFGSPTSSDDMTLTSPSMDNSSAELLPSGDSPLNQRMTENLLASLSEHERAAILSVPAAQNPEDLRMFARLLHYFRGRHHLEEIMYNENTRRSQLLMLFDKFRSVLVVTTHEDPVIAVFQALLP
Protocol: (§1) Two million HEK-293T cells were plated in 10 cm culture dishes and grown. Twenty-four hours later, cells were transfected via the polyethylenimine method (Boussif et al., 1995) with one or more of the pRK5-based cDNA expression plasmids in the following amounts: 300 ng FLAG-Metap2, 100 ng FLAG-WDR24, 50 ng FLAG-Sestrin1, 25 ng FLAG-Sestrin2, 200 ng FLAG-Sestrin3, 2 ng of FLAG-S6K1, or 200 ng each of HA-Mios, HA-WDR59, HA-WDR24, HA-Sec13, HA-Seh1L, HA-Depdc5, HA-Npr13, or HA-Npr12. The total amount of plasmid DNA in each transfection was normalized to 5 μg with empty pRK5.
(§2) The beads were washed 3 times with lysis buffer containing 500 mM NaCl. In the case of transient cotransfection assays to explore the interaction of the Sestrins with GATOR2, beads were incubated in the final salt wash for 30 minutes to reduce non-specific binding.

[2] = molecular target: B5; assay: as above
Protocol: as §1, §2

[3] = molecular target: T2, FLAG-DEPDCS, a GATOR1 component (UniProt O75140 1-1603, limits assumed); assay: anti-FLAG co-immunoprecipitation from stably expressing HEK-293T, immunoblot (FIG. 5A)
T2 construct: also called FLAG-DEPDC5; not shown: FLAG tag
T2 sequence (O75140 whole entry): as the sequence (O75140 whole entry, chain 1 of 3) above

[4] = molecular target: B3; assay: anti-FLAG co-immunoprecipitation, transient co-expression in HEK-293T, immunoblot (FIG. 1B)
Protocol: as §1, §2

[5] = molecular target: B1; assay: as above
Protocol: as §1, §2

B1
binding result [1]: no binding

B2
binding result [2]: no binding
binding result [1]: no binding

B3
binding result [1]: no binding

B4
binding result [3]: no binding

B5
binding result [4]: no binding
binding result [5]: no binding

Reference: patent publication US20170285043A1 (WHITEHEAD INSTITUTE FOR BIOMEDICAL RESEARCH, published 2017)
